Substitutions are numbered along the chain they refer to.

The chains are these.
B1: scl-Fc fusion protein INS021 (Fc fusion)
chain: SFVNQHLCGSHLVEALELVCGERGFHYTPKTEEYPGDVGIVEQCCTSICSLSQLENYCGGEAEDLQVGQVELGGGPGAGSLQLALEGSLQGGPSVFLFPPKPKDTLMISRTPEVTCVVVDVSHEDPEVKFNWYVDGVEVHNAKTKPREEQYNSTYRVVSVLTVLHQDWLNGKEYKCKVSNKALPAPIEKTISKAKGQPREPQVYTLPPSRDELTKNQVSLTCLVKGFYPSDIAVEWESNGQPENNYKTTPPVLDSDGSFFLYSKLTVDKSRWQQGNVFSCSVMHEALHNHYTQKSLSLSPGGGGGSAESKYGPPCPPCPA
B2: scl-Fc fusion protein INS016 (Fc fusion)
chain: FVNQHLCGSHLVEALHLVCGERGFHYTPKTGSYPGGVGIVEQCCTSICSLSQLENYCGGEAEDLQVGQVELGGGPGAGSLQPEGSLQGGPSVFLFPPKPKDTLMISRTPEVTCVVVDVSHEDPEVKFNWYVDGVEVHNAKTKPREEQYNSTYRVVSVLTVLHQDWLNGKEYKCKVSNKALPAPIEKTISKAKGQPREPQVYTLPPSRDELTKNQVSLTCLVKGFYPSDIAVEWESNGQPENNYKTTPPVLDSDGSFFLYSKLTVDKSRWQQGNVFSCSVMHEALHNHYTQKSLSLSPGGGGGSAESKYGPPCPPCPA
B3: scl-Fc fusion protein INS018 (Fc fusion)
chain: B2 chain with H16E, N55D
B4: scl-Fc fusion protein INS022 (Fc fusion)
chain: B2 chain with H16E
B5: scl-Fc fusion protein INS020 (Fc fusion)
chain: B2 chain with H16E, G31E, S32E, G36D
B6: scl-Fc fusion protein INS017 (Fc fusion)
chain: SFVNQHLCGSHLVEALHLVCGERGFHYTPKTGSYPGGVGIVEQCCTSICSLSQLENYCGGEAEDLQVGQVELGGGPGAGSLQPEGSLQGGPSVFLFPPKPKDTLMISRTPEVTCVVVDVSHEDPEVKFNWYVDGVEVHNAKTKPREEQYNSTYRVVSVLTVLHQDWLNGKEYKCKVSNKALPAPIEKTISKAKGQPREPQVYTLPPSRDELTKNQVSLTCLVKGFYPSDIAVEWESNGQPENNYKTTPPVLDSDGSFFLYSKLTVDKSRWQQGNVFSCSVMHEALHNHYTQKSLSLSPGGGGGSAESKYGPPCPPCPA
B7: scl-Fc fusion protein INS023 (Fc fusion)
chain: B6 chain with H17E
B8: scl-Fc fusion protein INS019 (Fc fusion)
chain: B6 chain with H17E, N56D

The first experiment has as its target Pig IR (pig, UniProt F1SCL0 28-1382). As to the kind of experiment: cell-based or functional assay.
Regarding B1, the “Pig IR phosphorylation [EC 50 nM] mean” value came to 56.7 nM.

As to B2, the “Pig IR phosphorylation [EC 50 nM] mean” value turned out to be 41.5 nM.

With B3, the “Pig IR phosphorylation [EC 50 nM] mean” value is 60 nM.

Turning to B4, the “Pig IR phosphorylation [EC 50 nM] mean” value was determined as 15.9 nM.

With B5, the “Pig IR phosphorylation [EC 50 nM] mean” value came to 157 nM.

For the molecule B6, the “Pig IR phosphorylation [EC 50 nM] mean” value came to 26.3 nM.

B7: the “Pig IR phosphorylation [EC 50 nM] mean” value is 29.9 nM.

For the molecule B8, the “Pig IR phosphorylation [EC 50 nM] mean” value was determined as 43 nM.

For another experiment, the target named is human insulin receptor isoform A (human, UniProt P06213-2 28-1370). Put plainly: cell-based or functional assay.
On to B1, for which the “hIR-A phosphorylation [EC50 nM] mean” value is 447 nM.

For the molecule B2, the “hIR-A phosphorylation [EC50 nM] mean” value came out at 180 nM.

For B3, the “hIR-A phosphorylation [EC50 nM] mean” value was found to be 536 nM.

Take B4: the “hIR-A phosphorylation [EC50 nM] mean” value came to 215 nM.

As to B5, the “hIR-A phosphorylation [EC50 nM] mean” value was 718 nM.

Take B6: the “hIR-A phosphorylation [EC50 nM] mean” value was 70.6 nM.

On to B7, for which the “hIR-A phosphorylation [EC50 nM] mean” value was 408 nM.

As for B8, the “hIR-A phosphorylation [EC50 nM] mean” value was 666 nM.

A further experiment has as its target human insulin receptor isoform B (human, UniProt P06213 28-1382). Put plainly: cell-based or functional assay.
Turning to B1, the “hIR-B-phosphorylation [EC50 nM] mean” value was 288 nM.

B2: the “hIR-B-phosphorylation [EC50 nM] mean” value is 58.8 nM.

Take B3: the “hIR-B-phosphorylation [EC50 nM] mean” value was 260 nM.

Take B4: the “hIR-B-phosphorylation [EC50 nM] mean” value was determined as 42.2 nM.

As to B5, the “hIR-B-phosphorylation [EC50 nM] mean” value turned out to be 185 nM.

In the case of B6, the “hIR-B-phosphorylation [EC50 nM] mean” value was found to be 36 nM.

Turning to B7, the “hIR-B-phosphorylation [EC50 nM] mean” value was determined as 59.8 nM.

Turning to B8, the “hIR-B-phosphorylation [EC50 nM] mean” value is 292 nM.

For the next experiment, the target named is Rat IR (rat, UniProt P15127 27-1383). Put plainly: cell-based or functional assay.
Sequence of Rat IR (P15127 27-1383): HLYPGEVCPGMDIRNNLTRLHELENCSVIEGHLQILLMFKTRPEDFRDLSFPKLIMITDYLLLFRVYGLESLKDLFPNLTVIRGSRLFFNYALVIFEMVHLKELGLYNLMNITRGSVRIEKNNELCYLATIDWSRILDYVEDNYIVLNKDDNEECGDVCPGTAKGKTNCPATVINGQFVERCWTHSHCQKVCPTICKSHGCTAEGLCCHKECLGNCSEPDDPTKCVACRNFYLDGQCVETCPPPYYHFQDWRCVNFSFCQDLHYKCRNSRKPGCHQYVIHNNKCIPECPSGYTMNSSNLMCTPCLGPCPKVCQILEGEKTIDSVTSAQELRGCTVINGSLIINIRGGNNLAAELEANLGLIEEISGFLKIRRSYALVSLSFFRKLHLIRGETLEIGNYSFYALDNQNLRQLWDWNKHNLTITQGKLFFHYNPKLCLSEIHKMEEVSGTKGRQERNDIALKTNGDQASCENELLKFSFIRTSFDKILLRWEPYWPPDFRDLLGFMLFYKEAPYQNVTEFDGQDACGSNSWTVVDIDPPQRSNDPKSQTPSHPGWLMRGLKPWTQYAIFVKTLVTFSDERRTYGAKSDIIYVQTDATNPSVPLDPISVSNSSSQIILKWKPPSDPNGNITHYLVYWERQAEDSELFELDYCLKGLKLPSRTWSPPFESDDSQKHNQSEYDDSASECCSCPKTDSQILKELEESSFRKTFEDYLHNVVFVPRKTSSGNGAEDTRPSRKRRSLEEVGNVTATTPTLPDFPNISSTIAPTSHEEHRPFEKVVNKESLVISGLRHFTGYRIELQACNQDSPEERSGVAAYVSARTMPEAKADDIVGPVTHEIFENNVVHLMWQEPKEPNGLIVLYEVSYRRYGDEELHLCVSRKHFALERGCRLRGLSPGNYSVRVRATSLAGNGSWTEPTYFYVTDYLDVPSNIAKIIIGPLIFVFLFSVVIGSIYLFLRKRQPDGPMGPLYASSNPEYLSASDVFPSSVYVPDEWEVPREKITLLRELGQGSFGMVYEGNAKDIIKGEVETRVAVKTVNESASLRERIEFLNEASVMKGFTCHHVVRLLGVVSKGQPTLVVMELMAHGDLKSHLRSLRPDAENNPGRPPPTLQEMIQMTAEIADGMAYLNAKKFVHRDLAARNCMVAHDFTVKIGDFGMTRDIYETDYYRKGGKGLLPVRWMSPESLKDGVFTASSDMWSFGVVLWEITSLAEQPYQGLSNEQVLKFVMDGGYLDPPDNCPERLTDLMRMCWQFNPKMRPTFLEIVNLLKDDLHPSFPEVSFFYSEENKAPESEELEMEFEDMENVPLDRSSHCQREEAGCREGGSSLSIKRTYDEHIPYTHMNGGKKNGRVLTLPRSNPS
As to B1, the “Rat IR phosphorylation [EC50 nM] mean” value is 620 nM.

With B2, the “Rat IR phosphorylation [EC50 nM] mean” value came to 85.5 nM.

Regarding B3, the “Rat IR phosphorylation [EC50 nM] mean” value turned out to be 233 nM.

Turning to B4, the “Rat IR phosphorylation [EC50 nM] mean” value was 64.9 nM.

B5: the “Rat IR phosphorylation [EC50 nM] mean” value came out at 247 nM.

Consider B6, for which the “Rat IR phosphorylation [EC50 nM] mean” value came out at 53.6 nM.

Regarding B7, the “Rat IR phosphorylation [EC50 nM] mean” value was 381 nM.

As to B8, the “Rat IR phosphorylation [EC50 nM] mean” value was 2200 nM.

For the origin of these results see patent publication US20260248892A1 (Sanofi, published 2026).
